Among the data in the supplement of paper PMC12338614 are STK11 functional score values, retold here.

± gives the uncertainty stated by the source.

First the molecules themselves.
B1: library; numbered along this chain (parent)
chain: MEVVDPQQLGMFTEGELMSVGMDTFIHRIDSTEVIYQPRRKRAKLIGKYLMGDLLGEGSYGKVKEVLDSETLCRRAVKILKKKKLRRIPNGEANVKKEIQLLRRLRHKNVIQLVDVLYNEEKQKMYMVMEYCVCGMQEMLDSVPEKRFPVCQAHGYFCQLIDGLEYLHSQGIVHKDIKPGNLLLTTGGTLKISDLGVAEALHPFAADDTCRTSQGSPAFQPPEIANGLDTFSGFKVDIWSAGVTLYNITTGLYPFEGDNIYKLFENIGKGSYAIPGDCGPPLSDLLKGMLEYEPAKRFSIRQIRQHSWFRKKHPPAEAPVPIPPSPDTKDRWRSMTVVPYLEDLHGADEDEDLFDIEDDIIYTQDFTVPGQVPEEEASHNGQRRGLPKAVCMNGTEAAQLSTKSRAEGRAPNPARKACSASSKIRRLSACKQQ

This data set covers variants of B1. Briefly: STK11 functional score (HeLa growth suppression), rescaled enrichment; synonymous median = 1, nonsense median = 0 (normalised score). The settings on record: with HeLa; variant type: missense. Summed up:
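Functional scores are post/pre-selection log ratios corrected to wild type, rescaled to synonymous and nonsense medians, merged over codons and replicate transfections, and given bootstrapped error. They come from POPCode libraries of codon-optimised STK11 integrated by Bxb1 at an AAVS1 landing pad in HeLa, three regions each transfected three times, with BFP-negative, mCherry-positive integrants sorted by FACS and tiled gDNA amplicons sequenced on NextSeq.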
As to MEVVDPQQLGMFTEGELMSVGMDTFIHRIDSTEVIYQPRRKRAKLIGKYLMGDLLGEGSYGKVKEVLDSETLCRRAVKILKKKKLRRIPNGEANVKKEIQLLRRLRHKNVIQLVDVLYNEEKQKMYMVMEYCVCGMQEMLDSVPEKRFPVCQAHGYFCQLIDGLEYLHSQGIVHKDIKPGNLLLTTGGTLKISDLGVAEAFHPFAADDTCRTSQGSPAFQPPEIANGLDTFSGFKVDIWSAGVTLYNITTGLYPFEGDNIYKLFENIGKGSYAIPGDCGPPLSDLLKGMLEYEPAKRFSIRQIRQHSWFRKKHPPAEAPVPIPPSPDTKDRWRSMTVVPYLEDLHGADEDEDLFDIEDDIIYTQDFTVPGQVPEEEASHNGQRRGLPKAVCMNGTEAAQLSTKSRAEGRAPNPARKACSASSKIRRLSACKQQ [L201F], the STK11 functional score came out at 0.797 ± 0.33. The same measure for MEVVDPQQLGMFTEGELMSVGMDTFIHRIDSTEVIYQPRRKRAKLIGKYLMGDLLGEGSYGKVKEVLDSETLCRRAVKILKKKKLRRIPNGEANVKKEIQLLRRLRHKNVIQLVDVLYNEEKQKMYMVMEYCVCGMQEMLDSVPEKRFPVCQAHGYFCQLIDGLEYLHSQGIVHKDIKPGNLLLTTGGTLKISDLGVAEAAHPFAADDTCRTSQGSPAFQPPEIANGLDTFSGFKVDIWSAGVTLYNITTGLYPFEGDNIYKLFENIGKGSYAIPGDCGPPLSDLLKGMLEYEPAKRFSIRQIRQHSWFRKKHPPAEAPVPIPPSPDTKDRWRSMTVVPYLEDLHGADEDEDLFDIEDDIIYTQDFTVPGQVPEEEASHNGQRRGLPKAVCMNGTEAAQLSTKSRAEGRAPNPARKACSASSKIRRLSACKQQ [L201A]: 1.59 ± 0.23; for MEVVDPQQLGMFTEGELMSVGMDTFIHRIDSTEVIYQPRRKRAKLIGKYLMGDLLGEGSYGKVKEVLDSETLCRRAVKILKKKKLRRIPNGEANVKKEIQLLRRLRHKNVIQLVDVLYNEEKQKMYMVMEYCVCGMQEMLDSVPEKRFPVCQAHGYFCQLIDGLEYLHSQGIVHKDIKPGNLLLTTGGTLKISDLGVAEAEHPFAADDTCRTSQGSPAFQPPEIANGLDTFSGFKVDIWSAGVTLYNITTGLYPFEGDNIYKLFENIGKGSYAIPGDCGPPLSDLLKGMLEYEPAKRFSIRQIRQHSWFRKKHPPAEAPVPIPPSPDTKDRWRSMTVVPYLEDLHGADEDEDLFDIEDDIIYTQDFTVPGQVPEEEASHNGQRRGLPKAVCMNGTEAAQLSTKSRAEGRAPNPARKACSASSKIRRLSACKQQ [L201E]: 0.334 ± 0.27; for MEVVDPQQLGMFTEGELMSVGMDTFIHRIDSTEVIYQPRRKRAKLIGKYLMGDLLGEGSYGKVKEVLDSETLCRRAVKILKKKKLRRIPNGEANVKKEIQLLRRLRHKNVIQLVDVLYNEEKQKMYMVMEYCVCGMQEMLDSVPEKRFPVCQAHGYFCQLIDGLEYLHSQGIVHKDIKPGNLLLTTGGTLKISDLGVAEACHPFAADDTCRTSQGSPAFQPPEIANGLDTFSGFKVDIWSAGVTLYNITTGLYPFEGDNIYKLFENIGKGSYAIPGDCGPPLSDLLKGMLEYEPAKRFSIRQIRQHSWFRKKHPPAEAPVPIPPSPDTKDRWRSMTVVPYLEDLHGADEDEDLFDIEDDIIYTQDFTVPGQVPEEEASHNGQRRGLPKAVCMNGTEAAQLSTKSRAEGRAPNPARKACSASSKIRRLSACKQQ [L201C]: 1.12 ± 0.33. With MEVVDPQQLGMFTEGELMSVGMDTFIHRIDSTEVIYQPRRKRAKLIGKYLMGDLLGEGSYGKVKEVLDSETLCRRAVKILKKKKLRRIPNGEANVKKEIQLLRRLRHKNVIQLVDVLYNEEKQKMYMVMEYCVCGMQEMLDSVPEKRFPVCQAHGYFCQLIDGLEYLHSQGIVHKDIKPGNLLLTTGGTLKISDLGVAEADHPFAADDTCRTSQGSPAFQPPEIANGLDTFSGFKVDIWSAGVTLYNITTGLYPFEGDNIYKLFENIGKGSYAIPGDCGPPLSDLLKGMLEYEPAKRFSIRQIRQHSWFRKKHPPAEAPVPIPPSPDTKDRWRSMTVVPYLEDLHGADEDEDLFDIEDDIIYTQDFTVPGQVPEEEASHNGQRRGLPKAVCMNGTEAAQLSTKSRAEGRAPNPARKACSASSKIRRLSACKQQ [L201D], the STK11 functional score turned out to be 0.769 ± 0.11.

As for MEVVDPQQLGMFTEGELMSVGMDTFIHRIDSTEVIYQPRRKRAKLIGKYLMGDLLGEGSYGKVKEVLDSETLCRRAVKILKKKKLRRIPNGEANVKKEIQLLRRLRHKNVIQLVDVLYNEEKQKMYMVMEYCVCGMQEMLDSVPEKRFPVCQAHGYFCQLIDGLEYLHSQGIVHKDIKPGNLLLTTGGTLKISDLGVAEWLHPFAADDTCRTSQGSPAFQPPEIANGLDTFSGFKVDIWSAGVTLYNITTGLYPFEGDNIYKLFENIGKGSYAIPGDCGPPLSDLLKGMLEYEPAKRFSIRQIRQHSWFRKKHPPAEAPVPIPPSPDTKDRWRSMTVVPYLEDLHGADEDEDLFDIEDDIIYTQDFTVPGQVPEEEASHNGQRRGLPKAVCMNGTEAAQLSTKSRAEGRAPNPARKACSASSKIRRLSACKQQ [A200W], the STK11 functional score was found to be 0.861 ± 0.091. The same measure for MEVVDPQQLGMFTEGELMSVGMDTFIHRIDSTEVIYQPRRKRAKLIGKYLMGDLLGEGSYGKVKEVLDSETLCRRAVKILKKKKLRRIPNGEANVKKEIQLLRRLRHKNVIQLVDVLYNEEKQKMYMVMEYCVCGMQEMLDSVPEKRFPVCQAHGYFCQLIDGLEYLHSQGIVHKDIKPGNLLLTTGGTLKISDLGVAEYLHPFAADDTCRTSQGSPAFQPPEIANGLDTFSGFKVDIWSAGVTLYNITTGLYPFEGDNIYKLFENIGKGSYAIPGDCGPPLSDLLKGMLEYEPAKRFSIRQIRQHSWFRKKHPPAEAPVPIPPSPDTKDRWRSMTVVPYLEDLHGADEDEDLFDIEDDIIYTQDFTVPGQVPEEEASHNGQRRGLPKAVCMNGTEAAQLSTKSRAEGRAPNPARKACSASSKIRRLSACKQQ [A200Y]: 1.29 ± 0.38.
